Measured values published in patent US20200024330A1.

Assays:
Test in all cases: cell-based or functional assay
[1] = target: HIV-1 92BR020 envelope glycoprotein (Env) on pseudovirus (HIV-1)
[2] = target: HIV-1 92RW020 envelope glycoprotein (Env) on pseudovirus (HIV-1)
[3] = target: HIV-1 Env of isolate 6535.3 (HIV-1)
[4] = target: HIV-1 Env of isolate 92BR020 (HIV-1)
[5] = target: HIV-1 Env of isolate 92RW008 (clade A), on pseudovirus (HIV-1)
[6] = target: HIV-1 Env of isolate 92RW009 (clade A), on pseudovirus (HIV-1)
[7] = target: HIV-1 Env of isolate 92TH021 (pseudovirus) (HIV-1)
[8] = target: HIV-1 Env of isolate 92UG001 (subtype D), on pseudovirus (HIV-1)
[9] = target: HIV-1 Env of isolate 92UG005 (subtype D), on pseudovirus (HIV-1)
[10] = target: HIV-1 Env of isolate 92UG024 (subtype D), on pseudovirus (HIV-1)
[11] = target: HIV-1 Env of isolate 92UG031 (pseudovirus) (HIV-1)
[12] = target: HIV-1 Env of isolate 92UG037 (pseudovirus) (HIV-1)
[13] = target: HIV-1 Env of isolate 92UG046 (subtype D), on pseudovirus (HIV-1)
[14] = target: HIV-1 Env of isolate 92UG114 (subtype D), on pseudovirus (HIV-1)
[15] = target: HIV-1 Env of isolate 92WR020 (pseudovirus) (HIV-1)
[16] = target: HIV-1 Env of isolate 92WR021 (pseudovirus) (HIV-1)
[17] = target: HIV-1 Env of isolate 92WR024 (pseudovirus) (HIV-1)
[18] = target: HIV-1 Env of isolate 92WR026 (pseudovirus) (HIV-1)
[19] = target: HIV-1 Env of isolate 93TH305 (HIV-1)
[20] = target: HIV-1 Env of isolate 93UG077 (pseudovirus) (HIV-1)
[21] = target: HIV-1 Env of isolate 93WR029 (pseudovirus) (HIV-1)
[22] = target: HIV-1 Env of isolate 94 KE 105 (pseudovirus) (HIV-1)
[23] = target: HIV-1 Env of isolate 94UG103 (pseudovirus) (HIV-1)
[24] = target: HIV-1 Env of isolate 98CN006 (subtype CRF08 BC), on pseudovirus (HIV-1)
[25] = target: HIV-1 Env of isolate 98CN009 (subtype CRF07_BC), on pseudovirus (HIV-1)
[26] = target: HIV-1 Env of isolate APV_13 (HIV-1)
[27] = target: HIV-1 Env of isolate APV_17 (HIV-1)
[28] = target: HIV-1 Env of isolate APV_6 (HIV-1)
[29] = target: HIV-1 Env of isolate CAAN.A2 (HIV-1)
[30] = target: HIV-1 Env of isolate CMU02 (pseudovirus) (HIV-1)
[31] = target: HIV-1 Env of isolate JRFL (HIV-1)
[32] = target: HIV-1 Env of isolate MG RM-A-005 (pseudovirus) (HIV-1)
[33] = target: HIV-1 Env of isolate MG RM-A-006 (pseudovirus) (HIV-1)
[34] = target: HIV-1 Env of isolate MG RM-A-007 (pseudovirus) (HIV-1)
[35] = target: HIV-1 Env of isolate MG RM-A-008 (pseudovirus) (HIV-1)
[36] = target: HIV-1 Env of isolate MG RM-A-009 (pseudovirus) (HIV-1)
[37] = target: HIV-1 Env of isolate MG RM-A-010 (pseudovirus) (HIV-1)
[38] = target: HIV-1 Env of isolate MG RM-A-011 (pseudovirus) (HIV-1)
[39] = target: HIV-1 Env of isolate MG RM-A-012 (pseudovirus) (HIV-1)
[40] = target: HIV-1 Env of isolate MG RM-A-013 (pseudovirus) (HIV-1)
[41] = target: HIV-1 Env of isolate MG RM-A-014 (pseudovirus) (HIV-1)
[42] = target: HIV-1 Env of isolate MGRM-AE-001 (pseudovirus) (HIV-1)
[43] = target: HIV-1 Env of isolate MGRM-AE-002 (pseudovirus) (HIV-1)
[44] = target: HIV-1 Env of isolate MGRM-AE-003 (pseudovirus) (HIV-1)
[45] = target: HIV-1 Env of isolate MGRM-AE-004 (pseudovirus) (HIV-1)
[46] = target: HIV-1 Env of isolate MGRM-AE-005 (pseudovirus) (HIV-1)
[47] = target: HIV-1 Env of isolate MGRM-AE-006 (pseudovirus) (HIV-1)
[48] = target: HIV-1 Env of isolate MGRM-Chronic-B-001 (HIV-1)
[49] = target: HIV-1 Env of isolate MGRM-Chronic-B-002 (HIV-1)
[50] = target: HIV-1 Env of isolate MGRM-Chronic-B-003 (HIV-1)
[51] = target: HIV-1 Env of isolate MGRM-Chronic-B-004 (HIV-1)
[52] = target: HIV-1 Env of isolate MGRM-Chronic-B-008 (HIV-1)
[53] = target: HIV-1 Env of isolate MGRM-D-001 (subtype D), on pseudovirus (HIV-1)
[54] = target: HIV-1 Env of isolate MGRM-D-002 (subtype D), on pseudovirus (HIV-1)
[55] = target: HIV-1 Env of isolate MGRM-D-003 (subtype D), on pseudovirus (HIV-1)
[56] = target: HIV-1 Env of isolate MGRM-D-004 (subtype D), on pseudovirus (HIV-1)
[57] = target: HIV-1 Env of isolate MGRM-D-005 (subtype D), on pseudovirus (HIV-1)
[58] = target: HIV-1 Env of isolate MGRM-D-008 (subtype D), on pseudovirus (HIV-1)
[59] = target: HIV-1 Env of isolate VLGCA1 (pseudovirus) (HIV-1)

4970_K22 (PGT-144) (antibody), sequence (VH): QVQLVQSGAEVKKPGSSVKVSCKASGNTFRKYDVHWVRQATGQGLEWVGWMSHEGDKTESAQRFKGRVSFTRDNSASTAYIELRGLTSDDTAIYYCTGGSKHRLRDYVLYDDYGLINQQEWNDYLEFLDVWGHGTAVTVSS
4970_K22 (PGT-144) (antibody), sequence (VL): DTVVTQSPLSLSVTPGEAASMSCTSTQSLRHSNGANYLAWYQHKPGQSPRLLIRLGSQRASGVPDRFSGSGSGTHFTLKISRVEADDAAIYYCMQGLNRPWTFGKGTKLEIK
4993_K13 (PGT-141) (antibody), sequence (VH): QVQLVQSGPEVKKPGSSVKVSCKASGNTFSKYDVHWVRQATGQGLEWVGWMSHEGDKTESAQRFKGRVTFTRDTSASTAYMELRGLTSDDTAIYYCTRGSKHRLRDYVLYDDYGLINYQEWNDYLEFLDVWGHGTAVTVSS
4993_K13 (PGT-141) (antibody), sequence (VL): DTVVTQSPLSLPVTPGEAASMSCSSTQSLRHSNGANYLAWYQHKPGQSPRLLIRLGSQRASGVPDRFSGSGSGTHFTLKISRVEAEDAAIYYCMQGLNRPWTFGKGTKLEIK

4970_K22 (PGT-144) (antibody)
IC50 (ug/ml), neutralizing activity [1]: > 10 µg/mL | IC50 (ug/ml), neutralizing activity [2]: > 10 µg/mL | IC50 [3]: > 50 µg/mL | IC50 [4]: 44 µg/mL | IC50, single-round pseudovirus neutralization [5]: > 50 µg/mL | IC50, single-round pseudovirus neutralization [6]: 0.893 µg/mL | IC50 (µg/mL), pseudovirus neutralization [7]: 0.052 µg/mL | IC50, pseudovirus neutralization [8]: > 50 µg/mL | IC50, pseudovirus neutralization [9]: > 50 µg/mL | IC50, pseudovirus neutralization [10]: > 50 µg/mL | IC50 (µg/mL), pseudovirus neutralization [11]: 2.17 µg/mL | IC50 (µg/mL), pseudovirus neutralization [12]: 8.24 µg/mL | IC50, pseudovirus neutralization [13]: > 50 µg/mL | IC50, pseudovirus neutralization [14]: > 50 µg/mL | IC50 (µg/mL), pseudovirus neutralization [15]: > 50 µg/mL | IC50 (µg/mL), pseudovirus neutralization [16]: > 50 µg/mL | IC50 (µg/mL), pseudovirus neutralization [17]: 16.3 µg/mL | IC50 (µg/mL), pseudovirus neutralization [18]: 32.7 µg/mL | IC50 [19]: > 50 µg/mL | IC50 (µg/mL), pseudovirus neutralization [20]: > 50 µg/mL | IC50 (µg/mL), pseudovirus neutralization [21]: 4.39 µg/mL | IC50 (µg/mL), pseudovirus neutralization [22]: 0.29 µg/mL | IC50 (µg/mL), pseudovirus neutralization [23]: > 50 µg/mL | IC50, pseudovirus neutralization [24]: > 50 µg/mL | IC50, pseudovirus neutralization [25]: > 50 µg/mL | IC50 [26]: > 50 µg/mL | IC50 [27]: 10.3 µg/mL | IC50 [28]: > 50 µg/mL | IC50 [29]: > 50 µg/mL | IC50 (µg/mL), pseudovirus neutralization [30]: > 50 µg/mL | IC50 [31]: > 50 µg/mL | IC50 (µg/mL), pseudovirus neutralization [32]: 18.6 µg/mL | IC50 (µg/mL), pseudovirus neutralization [33]: > 50 µg/mL | IC50 (µg/mL), pseudovirus neutralization [34]: > 50 µg/mL | IC50 (µg/mL), pseudovirus neutralization [35]: > 50 µg/mL | IC50 (µg/mL), pseudovirus neutralization [36]: 2.83 µg/mL | IC50 (µg/mL), pseudovirus neutralization [37]: 2.79 µg/mL | IC50 (µg/mL), pseudovirus neutralization [38]: > 50 µg/mL | IC50 (µg/mL), pseudovirus neutralization [39]: > 50 µg/mL | IC50 (µg/mL), pseudovirus neutralization [40]: > 50 µg/mL | IC50 (µg/mL), pseudovirus neutralization [41]: > 50 µg/mL | IC50 (µg/mL), pseudovirus neutralization [42]: > 50 µg/mL | IC50 (µg/mL), pseudovirus neutralization [43]: > 50 µg/mL | IC50 (µg/mL), pseudovirus neutralization [44]: > 50 µg/mL | IC50 (µg/mL), pseudovirus neutralization [45]: 0.104 µg/mL | IC50 (µg/mL), pseudovirus neutralization [46]: > 50 µg/mL | IC50 (µg/mL), pseudovirus neutralization [47]: > 50 µg/mL | IC50 [48]: > 50 µg/mL | IC50 [49]: > 50 µg/mL | IC50 [50]: 7.41 µg/mL | IC50 [51]: 9.41 µg/mL | IC50 [52]: > 50 µg/mL | IC50, pseudovirus neutralization [53]: > 50 µg/mL | IC50, pseudovirus neutralization [54]: > 50 µg/mL | IC50, pseudovirus neutralization [55]: > 50 µg/mL | IC50, pseudovirus neutralization [56]: > 50 µg/mL | IC50, pseudovirus neutralization [57]: 14.8 µg/mL | IC50, pseudovirus neutralization [58]: 9.85 µg/mL | IC50 (µg/mL), pseudovirus neutralization [59]: > 50 µg/mL

4993_K13 (PGT-141) (antibody)
IC50 (ug/ml), neutralizing activity [1]: > 10 µg/mL | IC50 (ug/ml), neutralizing activity [2]: > 10 µg/mL | IC50 [3]: > 50 µg/mL | IC50 [4]: 20.3 µg/mL | IC50, single-round pseudovirus neutralization [5]: 0.579 µg/mL | IC50, single-round pseudovirus neutralization [6]: 0.022 µg/mL | IC50 (µg/mL), pseudovirus neutralization [7]: 0.001 µg/mL | IC50, pseudovirus neutralization [8]: > 50 µg/mL | IC50, pseudovirus neutralization [9]: > 5 µg/mL | IC50, pseudovirus neutralization [10]: > 50 µg/mL | IC50 (µg/mL), pseudovirus neutralization [11]: 0.093 µg/mL | IC50 (µg/mL), pseudovirus neutralization [12]: 1.28 µg/mL | IC50, pseudovirus neutralization [13]: > 50 µg/mL | IC50, pseudovirus neutralization [14]: > 50 µg/mL | IC50 (µg/mL), pseudovirus neutralization [15]: > 50 µg/mL | IC50 (µg/mL), pseudovirus neutralization [16]: > 50 µg/mL | IC50 (µg/mL), pseudovirus neutralization [17]: 0.175 µg/mL | IC50 (µg/mL), pseudovirus neutralization [18]: 1.78 µg/mL | IC50 [19]: > 50 µg/mL | IC50 (µg/mL), pseudovirus neutralization [20]: > 50 µg/mL | IC50 (µg/mL), pseudovirus neutralization [21]: 0.019 µg/mL | IC50 (µg/mL), pseudovirus neutralization [22]: 0.204 µg/mL | IC50 (µg/mL), pseudovirus neutralization [23]: > 50 µg/mL | IC50, pseudovirus neutralization [24]: > 50 µg/mL | IC50, pseudovirus neutralization [25]: 1.28 µg/mL | IC50 [26]: > 50 µg/mL | IC50 [27]: 0.59 µg/mL | IC50 [28]: 14.2 µg/mL | IC50 [29]: > 50 µg/mL | IC50 (µg/mL), pseudovirus neutralization [30]: > 50 µg/mL | IC50 [31]: > 50 µg/mL | IC50 (µg/mL), pseudovirus neutralization [32]: 11.1 µg/mL | IC50 (µg/mL), pseudovirus neutralization [33]: > 50 µg/mL | IC50 (µg/mL), pseudovirus neutralization [34]: > 50 µg/mL | IC50 (µg/mL), pseudovirus neutralization [35]: > 50 µg/mL | IC50 (µg/mL), pseudovirus neutralization [36]: 0.029 µg/mL | IC50 (µg/mL), pseudovirus neutralization [37]: 0.022 µg/mL | IC50 (µg/mL), pseudovirus neutralization [38]: > 50 µg/mL | IC50 (µg/mL), pseudovirus neutralization [39]: > 50 µg/mL | IC50 (µg/mL), pseudovirus neutralization [40]: 9.86 µg/mL | IC50 (µg/mL), pseudovirus neutralization [41]: 0.628 µg/mL | IC50 (µg/mL), pseudovirus neutralization [42]: > 50 µg/mL | IC50 (µg/mL), pseudovirus neutralization [43]: > 50 µg/mL | IC50 (µg/mL), pseudovirus neutralization [44]: > 50 µg/mL | IC50 (µg/mL), pseudovirus neutralization [45]: > 50 µg/mL | IC50 (µg/mL), pseudovirus neutralization [46]: > 50 µg/mL | IC50 (µg/mL), pseudovirus neutralization [47]: > 50 µg/mL | IC50 [48]: > 50 µg/mL | IC50 [49]: > 50 µg/mL | IC50 [50]: 0.4 µg/mL | IC50 [51]: 0.586 µg/mL | IC50 [52]: > 50 µg/mL | IC50, pseudovirus neutralization [53]: > 50 µg/mL | IC50, pseudovirus neutralization [54]: > 50 µg/mL | IC50, pseudovirus neutralization [55]: > 50 µg/mL | IC50, pseudovirus neutralization [56]: > 50 µg/mL | IC50, pseudovirus neutralization [57]: 5.15 µg/mL | IC50, pseudovirus neutralization [58]: 0.371 µg/mL | IC50 (µg/mL), pseudovirus neutralization [59]: 2.07 µg/mL
